According to article PMC7367873, “Dissecting the sequence determinants for dephosphorylation by the catalytic subunits of phosphatases PP1 and PP2A” (Nature Communications, 2020):
Each block holds one molecule with its values, some of them ahead of it.

Tests used:
[1] = tested on: GFP-14-3-3β and its binding proteins; test: GFP-14-3-3β co-IP with LC-MS/MS label-free quantification, untreated versus PP1c-treated; design: species or system human; conditions: label-free quantification
GFP-14-3-3β = GFP-14-3-3β co-IP with LC-MS/MS, untreated GFP-14-3-3β versus GFP control (14-3-3 interactome); type: binding, human; conditions: label-free quantification
[2] = log2 difference, pairwise comparison PP1 vs untreated, 3 replicates each
[3] = log2 difference, pairwise comparison untreated vs GFP, 3 replicates each

B4: TRIM56 (protein, UniProt Q9BRZ2 1-755, looked up)
E3 ubiquitin-protein ligase …: MVSHGSSPSLLEALSSDFLACKICLEQLRAPKTLPCLHTYCQDCLAQLADGGRVRCPECRETVPVPPEGVASFKTNFFVNGLLDLVKARACGDLRAGKPACALCPLVGGTSTGGPATARCLDCADDLCQACADGHRCTRQTHTHRVVDLVGYRAGWYDEEARERQAAQCPQHPGEALRFLCQPCSQLLCRECRLDPHLDHPCLPLAEAVRARRPGLEGLLAGVDNNLVELEAARRVEKEALARLREQAARVGTQVEEAAEGVLRALLAQKQEVLGQLRAHVEAAEEAARERLAELEGREQVARAAAAFARRVLSLGREAEILSLEGAIAQRLRQLQGCPWAPGPAPCLLPQLELHPGLLDKNCHLLRLSFEEQQPQKDGGKDGAGTQGGEESQSRREDEPKTERQGGVQPQAGDGAQTPKEEKAQTTREEGAQTLEEDRAQTPHEDGGPQPHRGGRPNKKKKFKGRLKSISREPSPALGPNLDGSGLLPRPIFYCSFPTRMPGDKRSPRITGLCPFGPREILVADEQNRALKRFSLNGDYKGTVPVPEGCSPCSVAALQSAVAFSASARLYLINPNGEVQWRRALSLSQASHAVAALPSGDRVAVSVAGHVEVYNMEGSLATRFIPGGKASRGLRALVFLTTSPQGHFVGSDWQQNSVVICDGLGQVVGEYKGPGLHGCQPGSVSVDKKGYIFLTLREVNKVVILDPKGSLLGDFLTAYHGLEKPRVTTMVDGRYLVVSLSNGTIHIFRVRSPDS
Difference (log2), PP1 vs untreated ([1]; PP1 vs untreated): 0.8378 log2 | Difference (log2), untreated vs GFP (GFP-14-3-3β; untreated vs GFP): -0.02313 log2

B5: NUFIP2 (protein, UniProt Q7Z417 1-695, looked up)
FMR1-interacting protein …: MEEKPGQPQPQHHHSHHHPHHHPQQQQQQPHHHHHYYFYNHSHNHHHHHHHQQPHQYLQHGAEGSPKAQPKPLKHEQKHTLQQHQETPKKKTGYGELNGNAGEREISLKNLSSDEATNPISRVLNGNQQVVDTSLKQTVKANTFGKAGIKTKNFIQKNSMDKKNGKSYENKSGENQSVDKSDTIPIPNGVVTNNSGYITNGYMGKGADNDGSGSESGYTTPKKRKARRNSAKGCENLNIVQDKIMQQETSVPTLKQGLETFKPDYSEQKGNRVDGSKPIWKYETGPGGTSRGKPAVGDMLRKSSDSKPGVSSKKFDDRPKGKHASAVASKEDSWTLFKPPPVFPVDNSSAKIVPKISYASKVKENLNKTIQNSSVSPTSSSSSSSSTGETQTQSSSRLSQVPMSALKSVTSANFSNGPVLAGTDGNVYPPGGQPLLTTAANTLTPISSGTDSVLQDMSLTSAAVEQIKTSLFIYPSNMQTMLLSTAQVDLPSQTDQQNLGDIFQNQWGLSFINEPSAGPETVTGKSSEHKVMEVTFQGEYPATLVSQGAEIIPSGTEHPVFPKAYELEKRTSPQVLGSILKSGTTSESGALSLEPSHIGDLQKADTSSQGALVFLSKDYEIESQNPLASPTNTLLGSAKEQRYQRGLERNDSWGSFDLRAAIVYHTKEMESIWNLQKQDPKRIITYNEAMDSPDQ
Difference (log2), PP1 vs untreated ([1]; PP1 vs untreated): 0.7682 log2 | Difference (log2), untreated vs GFP (GFP-14-3-3β; untreated vs GFP): 0.8112 log2

B6: HNRNPF (protein, UniProt P52597 1-415, looked up)
Heterogeneous nuclear …: MMLGPEGGEGFVVKLRGLPWSCSVEDVQNFLSDCTIHDGAAGVHFIYTREGRQSGEAFVELGSEDDVKMALKKDRESMGHRYIEVFKSHRTEMDWVLKHSGPNSADSANDGFVRLRGLPFGCTKEEIVQFFSGLEIVPNGITLPVDPEGKITGEAFVQFASQELAEKALGKHKERIGHRYIEVFKSSQEEVRSYSDPPLKFMSVQRPGPYDRPGTARRYIGIVKQAGLERMRPGAYSTGYGGYEEYSGLSDGYGFTTDLFGRDLSYCLSGMYDHRYGDSEFTVQSTTGHCVHMRGLPYKATENDIYNFFSPLNPVRVHIEIGPDGRVTGEADVEFATHEEAVAAMSKDRANMQHRYIELFLNSTTGASNGAYSSQVMQGMGVSAAQATYSGLESQSVSGCYGAGYSGQNSMGGYD
Difference (log2), PP1 vs untreated ([1]; PP1 vs untreated): 0.766 log2 | Difference (log2), untreated vs GFP (GFP-14-3-3β; untreated vs GFP): -0.6522 log2

B7: SRP68 (protein, UniProt Q9UHB9 1-627, looked up)
Signal recognition particle …: MAAEKQVPGGGGGGGSGGGGGSGGGGSGGGRGAGGEENKENERPSAGSKANKEFGDSLSLEILQIIKESQQQHGLRHGDFQRYRGYCSRRQRRLRKTLNFKMGNRHKFTGKKVTEELLTDNRYLLLVLMDAERAWSYAMQLKQEANTEPRKRFHLLSRLRKAVKHAEELERLCESNRVDAKTKLEAQAYTAYLSGMLRFEHQEWKAAIEAFNKCKTIYEKLASAFTEEQAVLYNQRVEEISPNIRYCAYNIGDQSAINELMQMRLRSGGTEGLLAEKLEALITQTRAKQAATMSEVEWRGRTVPVKIDKVRIFLLGLADNEAAIVQAESEETKERLFESMLSECRDAIQVVREELKPDQKQRDYILEGEPGKVSNLQYLHSYLTYIKLSTAIKRNENMAKGLQRALLQQQPEDDSKRSPRPQDLIRLYDIILQNLVELLQLPGLEEDKAFQKEIGLKTLVFKAYRCFFIAQSYVLVKKWSEALVLYDRVLKYANEVNSDAGAFKNSLKDLPDVQELITQVRSEKCSLQAAAILDANDAHQTETSSSQVKDNKPLVERFETFCLDPSLVTKQANLVHFPPGFQPIPCKPLFFDLALNHVAFPPLEDKLEQKTKSGLTGYIKGIFGFRS
Difference (log2), PP1 vs untreated ([1]; PP1 vs untreated): 0.7891 log2 | Difference (log2), untreated vs GFP (GFP-14-3-3β; untreated vs GFP): 0.06806 log2

Now from value to molecule, other results behind:

Difference (log2), PP1 vs untreated [1, 2]: 2.419
B1: RPN2 (protein, UniProt P04844 23-631, looked up)
Dolichyl-diphosphooligosacchar …: LTPTHYLTKHDVERLKASLDRPFTNLESAFYSIVGLSSLGAQVPDAKKACTYIRSNLDPSNVDSLFYAAQASQALSGCEISISNETKDLLLAAVSEDSSVTQIYHAVAALSGFGLPLASQEALSALTARLSKEETVLATVQALQTASHLSQQADLRSIVEEIEDLVARLDELGGVYLQFEEGLETTALFVAATYKLMDHVGTEPSIKEDQVIQLMNAIFSKKNFESLSEAFSVASAAAVLSHNRYHVPVVVVPEGSASDTHEQAILRLQVTNVLSQPLTQATVKLEHAKSVASRATVLQKTSFTPVGDVFELNFMNVKFSSGYYDFLVEVEGDNRYIANTVELRVKISTEVGITNVDLSTVDKDQSIAPKTTRVTYPAKAKGTFIADSHQNFALFFQLVDVNTGAELTPHQTFVRLHNQKTGQEVVFVAEPDNKNVYKFELDTSERKIEFDSASGTYTLYLIIGDATLKNPILWNVADVVIKFPEEEAPSTVLSQNLFTPKQEIQHLFREPEKRPPTVVSNTFTALILSPLLLLFALWIRIGANVSNFTFAPSTIIFHLGHAAMLGLMYVYWTQLNMFQTLKYLAILGSVTFLAGNRMLAQQAVKRTAH
Difference (log2), untreated vs GFP (GFP-14-3-3β; [3]): -1.824

Difference (log2), PP1 vs untreated ([1]; PP1 vs untreated): 0.7666 log2
B2: FLOT2 (protein, UniProt Q14254 2-428, looked up)
Flotillin-2: GNCHTVGPNEALVVSGGCCGSDYKQYVFGGWAWAWWCISDTQRISLEIMTLQPRCEDVETAEGVALTVTGVAQVKIMTEKELLAVACEQFLGKNVQDIKNVVLQTLEGHLRSILGTLTVEQIYQDRDQFAKLVREVAAPDVGRMGIEILSFTIKDVYDKVDYLSSLGKTQTAVVQRDADIGVAEAERDAGIREAECKKEMLDVKFMADTKIADSKRAFELQKSAFSEEVNIKTAEAQLAYELQGAREQQKIRQEEIEIEVVQRKKQIAVEAQEILRTDKELIATVRRPAEAEAHRIQQIAEGEKVKQVLLAQAEAEKIRKIGEAEAAVIEAMGKAEAERMKLKAEAYQKYGDAAKMALVLEALPQIAAKIAAPLTKVDEIVVLSGDNSKVTSEVNRLLAELPASVHALTGVDLSKIPLIKKATGVQV
Difference (log2), untreated vs GFP (GFP-14-3-3β; untreated vs GFP): -0.7491 log2

Difference (log2), PP1 vs untreated [1, 2]: 2.342
B3: PGAM5 (protein, UniProt Q96HS1 1-289, looked up)
Serine/threonine-protein …: MAFRQALQLAACGLAGGSAAVLFSAVAVGKPRAGGDAEPRPAEPPAWAGGARPGPGVWDPNWDRREPLSLINVRKRNVESGEEELASKLDHYKAKATRHIFLIRHSQYHVDGSLEKDRTLTPLGREQAELTGLRLASLGLKFNKIVHSSMTRAIETTDIISRHLPGVCKVSTDLLREGAPIEPDPPVSHWKPEAVQYYEDGARIEAAFRNYIHRADARQEEDSYEIFICHANVIRYIVCRALQFPPEGWLRLSLNNGSITHLVIRPNGRVALRTLGDTGFMPPDKITRS
Difference (log2), untreated vs GFP (GFP-14-3-3β; [3]): -0.7531

Difference (log2), PP1 vs untreated ([1]; PP1 vs untreated): 0.772 log2
B8: ARHGEF2 (protein, UniProt Q92974 1-986, looked up)
Rho guanine nucleotide …: MSRIESLTRARIDRSRELASKTREKEKMKEAKDARYTNGHLFTTISVSGMTMCYACNKSITAKEALICPTCNVTIHNRCKDTLANCTKVKQKQQKAALLKNNTALQSVSLRSKTTIRERPSSAIYPSDSFRQSLLGSRRGRSSLSLAKSVSTTNIAGHFNDESPLGLRRILSQSTDSLNMRNRTLSVESLIDEAEVIYSELMSDFEMDEKDFAADSWSLAVDSSFLQQHKKEVMKQQDVIYELIQTELHHVRTLKIMTRLFRTGMLEELHLEPGVVQGLFPCVDELSDIHTRFLSQLLERRRQALCPGSTRNFVIHRLGDLLISQFSGPSAEQMCKTYSEFCSRHSKALKLYKELYARDKRFQQFIRKVTRPAVLKRHGVQECILLVTQRITKYPLLISRILQHSHGIEEERQDLTTALGLVKELLSNVDEGIYQLEKGARLQEIYNRMDPRAQTPVPGKGPFGREELLRRKLIHDGCLLWKTATGRFKDVLVLLMTDVLVFLQEKDQKYIFPTLDKPSVVSLQNLIVRDIANQEKGMFLISAAPPEMYEVHTASRDDRSTWIRVIQQSVRTCPSREDFPLIETEDEAYLRRIKMELQQKDRALVELLREKVGLFAEMTHFQAEEDGGSGMALPTLPRGLFRSESLESPRGERLLQDAIREVEGLKDLLVGPGVELLLTPREPALPLEPDSGGNTSPGVTANGEARTFNGSIELCRADSDSSQRDRNGNQLRSPQEEALQRLVNLYGLLHGLQAAVAQQDTLMEARFPEGPERREKLCRANSRDGEAGRAGAAPVAPEKQATELALLQRQHALLQEELRRCRRLGEERATEAGSLEARLRESEQARALLEREAEEARRQLAALGQTEPLPAEAPWARRPVDPRRRSLPAGDALYLSFNPPQPSRGTDRLDLPVTTRSVHRNFEDRERQELGSPEERLQDSSDPDTGSEEEGSSRLSPPHSPRDFTRMQDIPEETESRDGEAVASES
Difference (log2), untreated vs GFP (GFP-14-3-3β; untreated vs GFP): 1.2 log2
